B1: recombinant mutant ASC specks (recASC; K21A, K22A and K26A) in the ASC-PYD domain (other)
chain: MGRARDAILDALENLTAEELAAFKLALLSVPLREGYGRIPRGALLSMDALDLTDKLVSFYLETYGAELTANVLRDMGLQEMAGQLQAATHQGSGAAPAGIQAPPQSAAKPGLHFIDQHRAALIARVTNVEWLLDALYGKVLTDEQYQAVRAEPTNPSKMRKLFSFTPAWNWTCKDLLLQALRESQSYLVEDLERS
notes: Made and prepared as the wild-type recombinant protein; also called recASC K21A, K22A, K26A; ASC-PYD mutant; not shown: TEV protease cleavage site; mCherry; C-terminal hexa-histidine tag from pET-23a
B2: ASC specks released by immunostimulated wild-type primary murine microglia or murine macrophages (other, UniProt Q9EPB4 1-193, looked up)
chain: MGRARDAILDALENLSGDELKKFKMKLLTVQLREGYGRIPRGALLQMDAIDLTDKLVSYYLESYGLELTMTVLRDMGLQELAEQLQTTKEESGAVAAAASVPAQSTARTGHFVDQHRQALIARVTEVDGVLDALHGSVLTEGQYQAVRAETTSQDKMRKLFSFVPSWNLTCKDSLLQALKEIHPYLVMDLEQS
notes: Endogenous protein in cell-free supernatants; aggregated (speck) form; also called Microglia released ASC specks

Key:
[1] = biological target: the molecule itself; experiment: immunoblot for ASC over incubation time (self-association)
[2] = biological target: T1, TAMRA-labelled Aβ1-42 (UniProt P05067 672-713, TAMRA label (position not given)); experiment: flow cytometry of supernatants of immunostimulated primary microglia incubated with Aβ1-42
T1 construct: domain: Aβ1-42; also called TAMRA-Aβ1-42; TAMRA-Aβ
T1 sequence (P05067 672-713 limits assumed): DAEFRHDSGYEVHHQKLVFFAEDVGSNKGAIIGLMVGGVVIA
Experimental: Supernatants containing ASC specks were subsequently incubated with Aβ₁₋₄₂ for 6 h and thereafter analyzed by flow cytometry. (b) Upper panel: Immunoprecipitation and immunoblot detection of ASC in unstimulated, immunoactivated wildtype (wt) and ASC knockout (ASC^{-/-}) macrophages. ASC monomer detection is restricted to supernatants of immunoactivated, ASC-competent wt cells and absent in unstimulated wt cells or ASC^{-/-} macrophages. Lower panel: Immunoprecipitation of ASC followed by immunoblot detection of Aβ under the same experimental conditions as described for the upper panel. ASC bound Aβ is exclusively detected in supernatants derived from immunoactivated wt macrophages but not from unstimulated wt or ASC^{-/-} cells. (c) Upper panel: Immunoprecipitation of ASC and immunoblot detection of ASC in unstimulated, immunoactivated wt and ASC^{-/-} microglia. ASC monomer detection is restricted to supernatants of immunoactivated ASC competent wt cells and absent in unstimulated wt cells or ASC^{-/-} macrophages. […] ASC bound Aβ is exclusively detected in supernatants derived from immunoactivated wt microglia but not from unstimulated wt or ASC^{-/-} cells. […] (f) Flow cytometry quantification of ASC-TAMRA-labelled […] after immunostimulation of microglia. […]

Binder	binding result [1]	binding result [2]
B1	no binding	–
B2	–	binds
